In test [1] the test system is IL-4 induced germline ε transcription (ε promoter reporter in A5T4 cells). Put plainly: Re-infection assay in naïve A5T4 cells (BFP− vs BFP+ populations, FACS of GFP). In kind it is cell-based, human. The note with it: A5T4 reporter line. Here is the method: The ability of peptide DR15wt (SEQ ID NO:1) to inhibit germline ε transcription was confirmed in naïve cells. Briefly, Phoenix cells were transfected with a retroviral vector encoding a BFP-DR15wt (SEQ ID NO:1) peptide fusion as described in WO 99/58663 and WO 97/27213. Naïve A5T4 cells were infected with the resultant virions and grown for 3 days. The infected cells were stimulated with IL-4 (60 U/mL) and, after 3 days, the cells were assessed by FACS for BFP and GFP. […] The BFP fluorescence data corresponding to the BFP^+ and BFP^− populations are provided in Panel A. The GFP fluorescence data corresponding to the BFP^+ and BFP^− populations are presented in Panel B. The reporter ratio for this purpose is determined as the geometric mean of the GFP fluorescence of the BFP^− population divided by the geometric mean of the GFP fluorescence of the BFP^+ population. The reporter ratio for the DR15 in this re-infection assay was 1.69.
A collection of DR15 mutants was generated by replacing double amino acid residues in the sequence of DR15wt (SEQ ID NO:1) with a different amino acid, typically an alanine, as described in copending application Ser. No. 10/095,659. The functional profiles for the mutants derived from DR15wt (SEQ ID NO:1) was obtained by constructing and screening for activity in the A5T4 reporter cell line in the manner described above. […]

Test [2] addresses T1, human thioredoxin-like 32 kDa protein (hTXNL) (Homo sapiens, UniProt O43396).
T1 construct: expressed in transfected cells; prey cDNA from a library of the A5T4 reporter line (derived from BJAB B-cells)
T1 sequence (O43396 1-289): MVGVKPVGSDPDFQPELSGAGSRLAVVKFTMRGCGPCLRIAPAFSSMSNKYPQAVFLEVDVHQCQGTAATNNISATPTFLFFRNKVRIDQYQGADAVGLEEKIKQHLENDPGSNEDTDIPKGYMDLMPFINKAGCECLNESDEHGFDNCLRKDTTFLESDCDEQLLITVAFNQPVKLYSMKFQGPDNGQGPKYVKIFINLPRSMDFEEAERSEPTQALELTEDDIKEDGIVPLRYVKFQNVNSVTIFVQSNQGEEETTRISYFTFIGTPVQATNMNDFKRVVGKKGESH
Put plainly: β-galactosidase yeast two hybrid (YTH) interaction assay. Format: binding. How it is done:
Potential binding partners for peptide DR15wt were identified in a β-galactosidase yeast two-hybrid (YTH) assay using peptide DR15wt as bait and a cDNA library constructed from the A5T4 reporter cell line as prey. Binding was assessed by β-galactosidase quantification using BetaFluor (Novagen) as a substrate. A negative interaction control (no cDNA fused downstream of the GAL4 activation domain sequence) was also run. A general outline of the YTH assay is illustrated in FIG. 5A. Following clustering, filtering to remove non-specific bait hits (e.g., GFP and BFP), singletons and clusters recognized by 10 or more cDNA baits (based upon historical YTH assays), and prioritization, 10 prey clones were identified as hits.
Potential targets identified in the YTH assay were reconfirmed as generally outlined in FIG. 6. The cDNA clones identified as hits in the YTH assay were purified and rescreened for interaction with the DR15wt (SEQ ID NO:1) peptide in a YTH assay. The hit clones were also screened in a control assay for interaction with the BFP using a vector (pGBKT7) that contained only the BFP and not the DR15 peptide. At this stage, 8 putative target clones remained.
The interaction of DR15wt (SEQ ID NO:1) peptide and its mutants with the clones identified as potential targets for the peptide DR15wt (SEQ ID NO:1) was then quantified in a galactosidase YTH assay. The YTH assay was performed in the manner described above. A general outline of this YTH assay is illustrated in FIG. 5B. For each clone tested, an interaction profile was developed by comparing the β-galactosidase activity of each mutant to that of the wild type peptide as described above.
The interaction of these IOF and ROF mutants with different polypeptides encoded by the putative target clones were quantified using the YTH assay described above. Based on the YTH assay, for each putative target, a subset of the mutants representing each of the above functional categories, when available, were categorized into the following four interaction categories: (1) reduction of interaction (ROI); (2) loss of interaction (LOT); (3) increase of interaction (101); and (4) interactionally neutral (N), by assessing the binding affinity ratio of the mutant peptide and the wild type peptide (β-gal activity of mutant/wild type) to the putative target. For the YTH interaction assay mutants DR15PE (SEQ ID NO:2), DR15QI (SEQ ID NO:3), and DR15YM (SEQ ID NO:4) as well as originally identified DR15wt (SEQ ID NO:1), were used.

Test [3] has as its system endogenous α promoter (ST486 cells). Put plainly: TAQMAN assay of endogenous germline α promoter transcription in ST486 cells. In kind it is cell-based. As to conditions: ST486 cells stimulated with TGF-β 40 ng/ml; average of 3 values; p=0.7797. How it is done: The assay was similar to that described in the immediately preceding section, except that ST486 cells (ATCC # CRL-1647) engineered to express the tetracycline-regulated transactivator were infected and the infected cells were stimulated with TGF-β (40 ng/ml; Peprotech). The primers and probe, which are specific for the transcription product driven by the ST486 endogenous α promoter, were as follows (the probe was labeled at the 5′-end with Fam and at the 3′-end with Tamra): […]

This is an account of results in patent publication US7563585B2, “Methods of assaying compounds that modulate IL-4 receptor-mediated IgE synthesis utilizing a thioredoxin-like 32 kDa protein (TXNL)” (Rigel Pharmaceuticals, Inc., priority 2002, dated 2009).

Take “AARCYMRMPPQSLADAQIYS (Peptide generated by a combinatorial library) [DR15PE, dual alanine mutant of DR15wt]”: the “functional category based on reporter ratio compared to DR15wt” value in test [1] is “IOF (An increase of function mutant (IOF) shows a >50% increase in reporter ratio)”. Also, in test [2], the “binding to hTXNL in yeast two hybrid interaction assay” value (“binding to hTXNL” below) is on record as “found to bind”.

As to “PERCAARMPPQSLADAQIYS (peptide generated from combinatorial library) [DR15YM, dual alanine mutant of DR15wt]”, the “binding to hTXNL” value in test [2] is given as “found to bind”. Still for that read-out and setting: next, “PERCYMRMPPQSLADAAAYS (peptide generated from combinatorial library) [DR15QI, dual alanine mutant of DR15wt]”: “found to bind”. For “PERCYMRMPPQSLADAQIYS (peptide generated from a combinatorial library) [DR15wt, 20-mer peptide from a random retroviral library, expressed as BFP-peptide fusion]”, the “endogenous α inhibition ratio” value in test [3] came to 0.98. For the same sequence, the “binding to hTXNL” value in test [2] is listed as “found to bind”.
